The source of these data is article PMC6600415.

The target of this experiment is low-density lipoprotein receptor-related protein 6 (LRP6), O75581.

B1: LysRS-DKK2-Fc fusion protein, Q9UBU2 34-259 (Fc fusion)
chain: KLNSIKSSLGGETPGQAANRSAGMYQGLAFGGSKKGKNLGQAYPCSSDKECEVGRYCHSPHQGSSACMVCRRKKKRCHRDGMCCPSTRCNNGICIPVTESILTPHIPALDGTRHRDRNHGHYSNHDLGWQNLGRPHTKMSHIKGHEGDPCLRSSDCIEGFCCARHFWTKICKPVLHQGEVCTKQRKKGSHGLEIFQRCDCAKGLSCKVWKDATYSSKARLHVCQKI
Turning to B1, the TOPflash luciferase reporter activity in HEK 293T cells, percent inhibition, two concentrations up to 500 ng/mL (4.2 nM) stood at 47%.

B2: TEV-cleaved LysRS-DKK2-Fc (DKK2-Fc released by TEV protease), Q9UBU2 34-259 (Fc fusion)
chain: B1 chain
B2 yielded a TOPflash luciferase reporter activity in HEK 293T cells, percent inhibition; TEV-cleaved LysRS-DKK2-Fc (2): mixed with TEV protease and immediately added to cells of 18%.
